# Assays:
# human GIPR (hGIPR) = biological target: T1, human GIPR (hGIPR) (Homo sapiens, UniProt P48546); test: Functional in vitro GIPR antagonist potency assay (human GIPR-CHO cAMP, HTRF); format: cell-based; conditions: CHO-K1 cells stably expressing hGIPR, 1.5 nM hGIP
# T1 sequence (P48546 22-466): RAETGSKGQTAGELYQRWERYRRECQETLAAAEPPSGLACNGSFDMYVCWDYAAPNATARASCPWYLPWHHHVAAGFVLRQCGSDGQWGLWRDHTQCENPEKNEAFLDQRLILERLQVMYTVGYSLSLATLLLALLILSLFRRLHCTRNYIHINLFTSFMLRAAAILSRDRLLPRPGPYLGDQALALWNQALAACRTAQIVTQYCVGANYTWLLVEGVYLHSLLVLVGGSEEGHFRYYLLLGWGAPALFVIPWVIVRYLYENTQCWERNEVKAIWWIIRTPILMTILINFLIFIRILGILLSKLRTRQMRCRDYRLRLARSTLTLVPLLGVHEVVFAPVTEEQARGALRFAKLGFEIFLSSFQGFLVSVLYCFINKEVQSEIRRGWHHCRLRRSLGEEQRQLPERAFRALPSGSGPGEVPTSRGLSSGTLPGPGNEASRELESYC
# Text: Following agonist activation, hGIPR associates with the G-protein complex causing the Gas subunit to exchange bound Guanosine diphosphate (GDP) for guanosine triphosphate (GTP), followed by dissociation of the Gas-GTP complex. The activated Gas subunit can couple to downstream effectors to regulate the levels of second messengers or cAMP within the cell. Thereby, determination of intracellular cAMP levels allows for pharmacological characterization. Intracellular cAMP levels were quantified using a homogenous assay utilizing the Homogeneous Time Resolved Fluorescence (HTRF) technology from Perkin Elmer. The method was a competitive immunoassay between native cAMP produced by the cells and cAMP labelled with the acceptor dye, d2. The two entities competed for binding to a monoclonal anti-cAMP antibody labeled with cryptate. […] G2269) in 1× cAMP assay buffer was added to the assay plate (5 μL/well) at 4.5 nM (final concentration of 1.5 nM) and incubated for another 30 minutes at 37° C., after which intracellular cAMP levels were quantified with Cisbio cAMP-GS Dynamic kit (#62AM4PEC) with dilution of 20× of D2 and Eu in lysis buffer, mixed 1:1 by volume, and added 15 ul/well into plate, with a quick spin. […] The plate was then read on an Envision plate reader. Data were analyzed using the ratio of fluorescence intensity at 620 and 665 nm for each well.
# Human GIPR ECD = biological target: T2, Human GIPR ECD (Homo sapiens, UniProt P48546); test: Kinetic evaluation of anti-GIPR antibody by surface plasmon resonance (SPR); set-up: made in house; conditions: SPR at 37° C., captured antibody, 1:1 binding model
# T2 sequence (P48546 with tags, fused parts or gaps): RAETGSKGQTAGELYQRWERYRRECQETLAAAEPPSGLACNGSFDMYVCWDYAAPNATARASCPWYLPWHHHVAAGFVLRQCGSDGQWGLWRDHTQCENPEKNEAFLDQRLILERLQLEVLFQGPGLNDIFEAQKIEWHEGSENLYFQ
# Description: Human GIPR ECD (amino acid sequence of SEQ ID NO: 33) was prepared. An anti-human Fc sensor chip was prepared by amine coupling of anti-human IgG antibody (catalog number BR-1008-39, Cytiva) to all flow cells of a carboxymethylated dextran coated sensor chip (CM5) (catalog number BR100530, Cytiva) according to the manufacturer's protocols. The flow cells were activated by injecting a 1:1 mixture of 400 mM 1-Ethyl-3-(3-dimethylaminopropyl) carbodiimide hydrochloride (EDC) and 100 mM N-hydroxysuccinimide (NHS) for 7 minutes at a flow rate of 10 μL/minute. Anti-human IgG antibody was diluted to ˜12.5 μg/mL in 10 mM sodium acetate pH 5.0 and injected over all flow cells for 7 minutes at 10 μL/minute. All flow cells were blocked with 1M ethanolamine-HCl (ETH) for 7 minutes at 10 μL/minute. Final immobilization levels of the capture antibody were approximately 12,000 resonance units (RU). […]
# Flow cell 1 was used as a reference surface. […] Rate constants and affinities were determined by fitting the data to a 1:1 binding model in BIAcore™ Insight Evaluation software version 3.0.12 (GE Healthcare).
# After antibody capture, dilutions of the human GIPR ECD proteins were flowed over the sensor chip surface and the association rate constant (ka), dissociation rate constant (kd), and KD values were determined for binding to human GIPR ECD (Table 5).
substance,measurement,setting,value
2G10: fully human monoclonal anti-GIPR antagonist antibody portion of AMG 133 (maridebart cafraglutide); benchmark antibody [reference compound],IC50,human GIPR (hGIPR),30.4 nM
same,Kd,Human GIPR ECD,19.2 nM
